Biological target: T1, NgR1 (Mus musculus, UniProt Q99PI8)
T1 chain: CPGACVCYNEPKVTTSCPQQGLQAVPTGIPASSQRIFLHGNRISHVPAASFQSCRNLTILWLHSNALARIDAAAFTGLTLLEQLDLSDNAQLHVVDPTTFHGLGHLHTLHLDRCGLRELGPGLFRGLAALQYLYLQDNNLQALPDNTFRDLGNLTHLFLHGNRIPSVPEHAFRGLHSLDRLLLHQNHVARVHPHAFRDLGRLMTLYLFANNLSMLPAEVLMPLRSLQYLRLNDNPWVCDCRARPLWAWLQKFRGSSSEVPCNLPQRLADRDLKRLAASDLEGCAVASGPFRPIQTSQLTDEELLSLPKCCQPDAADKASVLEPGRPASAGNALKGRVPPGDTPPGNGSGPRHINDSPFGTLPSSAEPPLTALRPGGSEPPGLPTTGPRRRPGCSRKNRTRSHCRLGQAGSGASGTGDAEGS
Experiment: AP-fusion cell-surface saturation binding

B1: LOTUS (Crtac1B) 29-602 (antibody)
chain: SQRAEPMFTAVTNSVLPPDYDSNPTQLNYGVAVTDVDHDGDFEIVVAGYTGPNLVLKYNRAQNRLVNIAVDERSSPYYALRDRQGNAIGVTACDIDGDGREEIYFLNTNNAFSGVATYTDKLFKFRNNRWEDILSDDVNVARGVASLFAGRSVACVDRTGSGRYSIYIANYAYGDVGPDALIEMDPEASDLSRGILALRDVAAEAGVSKYTAGRGVSVGPILSSSASDIFCDNENGPNFLFHNQGNGTFVDTAASAGVDDPHQHGRGVALADFNRDGKVDIVYGNWNGPHRLYLQMSAHGKVRFRDIASPKFSTPSPVRTVIAADFDNDQELEVFFNNIAYRSSSANRLFRVIRREHGDPLIEELNPGDALEPEGRGTGGVVTDFDGDGMLDLILSHGESMAQPLSVFRGNQGFSNNWLRVVPRTRFGAFARGAKVVLYTKKSGAHLRIIDGGSGYLCEMEPVAHFGLGRDEASSVEVTWPDGKMVSRSVASEEMNSVLEILYPQDEDKLQNTAPLECGQGFSQQDNGHCMDTNECIQFPFVCPRDKPVCVNTYGSYRCRTNKRCNRGYEPNED
modifications: alkaline phosphatase fusion of LOTUS
In the case of B1, the Kd is reported as about 6.8 nM.

— article PMC3244695 (2012)
